Target: GLR3.3-3Flag (Arabidopsis thaliana) (UniProt Q9C8E7)
Assay: IP-MS, anti-Flag IP of GLR3.3-3Flag from leaves of transgenic plants; co-enrichment, may be indirect

Chain of GLR3.3-3Flag (Arabidopsis thaliana) (Q9C8E7 24-933): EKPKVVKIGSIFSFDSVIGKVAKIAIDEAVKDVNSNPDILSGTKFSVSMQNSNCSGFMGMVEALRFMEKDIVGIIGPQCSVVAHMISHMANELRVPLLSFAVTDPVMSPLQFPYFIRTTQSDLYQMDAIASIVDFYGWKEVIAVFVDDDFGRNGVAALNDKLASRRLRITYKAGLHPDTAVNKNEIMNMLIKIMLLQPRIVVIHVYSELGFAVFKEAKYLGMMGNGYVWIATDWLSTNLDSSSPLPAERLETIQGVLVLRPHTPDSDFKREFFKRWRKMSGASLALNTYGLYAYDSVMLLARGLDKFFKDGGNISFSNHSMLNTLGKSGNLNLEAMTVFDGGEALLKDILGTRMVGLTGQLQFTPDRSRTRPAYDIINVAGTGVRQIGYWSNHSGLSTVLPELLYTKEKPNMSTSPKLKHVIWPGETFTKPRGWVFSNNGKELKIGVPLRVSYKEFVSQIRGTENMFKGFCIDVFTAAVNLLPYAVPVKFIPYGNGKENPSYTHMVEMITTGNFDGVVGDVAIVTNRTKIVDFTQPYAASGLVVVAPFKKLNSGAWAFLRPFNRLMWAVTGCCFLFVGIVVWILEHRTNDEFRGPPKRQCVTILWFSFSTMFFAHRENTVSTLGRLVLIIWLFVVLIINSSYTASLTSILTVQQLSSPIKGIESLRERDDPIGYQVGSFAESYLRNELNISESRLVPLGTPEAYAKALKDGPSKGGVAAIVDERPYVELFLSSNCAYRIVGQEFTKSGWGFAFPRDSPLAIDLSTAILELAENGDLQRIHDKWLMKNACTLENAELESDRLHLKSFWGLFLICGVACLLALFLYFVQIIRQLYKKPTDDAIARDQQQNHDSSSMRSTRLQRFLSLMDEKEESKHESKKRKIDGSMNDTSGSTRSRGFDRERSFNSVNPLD

Substance	unique peptide number (unique peptides)
ATMS1 (cobalamin-independent synthase family protein) (from UniProt O50008 1-765) (enzyme)	14
PIP2; 1 (plasma membrane intrinsic protein 2A) (from UniProt P43286 1-287)	7
GLDP2 (P-subunit of glycine decarboxylase) (from UniProt O80988 73-1044) (enzyme)	11
NIT1 (nitrilase isoenzyme family) (from UniProt P32961 2-346)	17
PPC2 (phosphoenolpyruvate carboxylase protein 2) (from UniProt Q5GM68 1-963) (enzyme)	12
GLU1 (glutamate synthase 1) (from UniProt Q9ZNZ7 106-1622) (enzyme)	57
CLPC1 (Clp protease ATP-binding subunit homologue) (from UniProt Q9FI56 39-929)	21
CAM6 (calmodulin) (from UniProt Q03509 1-149)	4
RCA (rubisco activase) (from UniProt P10896 59-474) (enzyme)	12
EIF3A (a subunit of eukaryotic initiation factor 3 (eIF3)) (from UniProt Q9LD55 1-987)	4
LOS1 (translation elongation factor 2-like protein) (from UniProt Q9ASR1 1-843)	21
FTIP1 (multiple C2 domain and transmembrane region protein 1) (from UniProt Q9FL59 1-794)	21
TGG1 (member of glycoside hydrolase family 1) (from UniProt P37702 20-541) (enzyme)	6
PIP2; 7 (plasma membrane intrinsic protein 3) (from UniProt P93004 1-280)	7
TKL1 (transketolase involved in carbon fixation) (from UniProt Q8RWV0 67-741) (enzyme)	17
PIP2; 4 (plasma membrane intrinsic protein 2; 4) (from UniProt Q9FF53 1-291)	5
coatomer, alpha subunit (from UniProt Q9SJT9 1-1218)	10
AHA1 (plasma membrane proton ATPase 1) (from UniProt P20649 2-949) (enzyme)	23
AHA2 (plasma membrane proton ATPase 2) (from UniProt P19456 2-948) (enzyme)	17
CAT3 (catalase) (from UniProt Q42547 1-492) (enzyme)	6
TIC110 (translocon at the chloroplast inner envelope) (from UniProt Q8LPR9 52-1016)	16

Substance	unique peptide number (unique peptides)
HSP70-2 (member of heat shock protein 70 family) (from UniProt P22954 1-653)	12
PWD (chloroplastidic phosphoglucan, water dikinase) (from UniProt Q6ZY51 55-1196) (enzyme)	43
GAPB (glyceraldehyde-3-phosphate dehydrogenase B subunit) (from UniProt P25857 81-447) (enzyme)	4
GLDP1 (glycine decarboxylase P-protein 1) (from UniProt Q94B78 68-1037) (enzyme)	15
CAM5 (calmodulin) (from UniProt Q682T9 1-149)	7
VEN3 (carbamoyl phosphate synthetase (CPS) large subunit) (from UniProt Q42601 63-1187) (enzyme)	12
GLR2.6 (from UniProt Q9LFN8 32-967) (receptor)	12
GLR3.2 (from UniProt Q93YT1 23-912) (receptor)	4
CaM7 (calmodulin 7) (from UniProt P59220 1-149)	11
LOX2 (chloroplast lipoxygenase 2) (from UniProt P38418 57-896) (enzyme)	9
HSP70-1 (member of heat shock protein 70 family) (from UniProt P22953 2-651)	15
GLU2 (glutamate synthase 2) (from UniProt Q9T0P4 108-1629) (enzyme)	13
UBA1 (ubiquitin-activating enzyme (E1)) (from UniProt P93028 1-1080)	7
CAT2 (catalase) (from UniProt P25819 1-492) (enzyme)	6
tRNA synthetase class I (I, L, M and V) family protein (from UniProt F4JLM5 1-1190) (enzyme)	62
GLR3.5 (from UniProt Q9SW97 30-953) (receptor)	9
TPP2 (tripeptidyl peptidase II) (from UniProt F4JVN6 1-1380) (enzyme)	42
AMY3 (plastid-localized α-amylase) (from UniProt Q94A41 56-887) (enzyme)	8
EDD1 (glycine-tRNA ligase) (from UniProt Q8L785 51-1067) (enzyme)	4
KEA1 (K^+ efflux antiporter 1) (from UniProt Q9ZTZ7 50-1193)	5
CAM3 (calmodulin) (from UniProt P0DH98 1-149)	7

— patent US20250270584A1, “Gene editing to provide insect resistance in crops” (The Regents of the University of California, priority 2022, published 2025)
